Measurements taken from publication PMC5377324.

How the values were obtained:
Experiment in all cases: ITC
[1] = target: Atx3_(22Q)-IIC (C-terminal fragment, residues 221-373, of isoform-II Atx3, 22Q)
[2] = target: Atx3_(46Q)-IIC (C-terminal fragment, residues 221-373, of isoform-II Atx3, polyQ expanded to 46Q)
[3] = target: Atx3_(6Q)-IIC (C-terminal fragment, residues 221-373, of isoform-II Atx3, polyQ truncated to 6Q)

Kd [1] [µM]	Kd [2] [µM]	Kd [3] [µM]	Substance
50	50	50	K48-diUb (Lys48-linked di-ubiquitin) (from UniProt P0CG48 1-76) (complex)
10	10	10	P97N (N-terminal domain of P97, residues 1-213) (from UniProt P55072 1-213) (domain or fragment)
